Test results: patent US20140329706A1 (CALIFORNIA INSTITUTE OF TECHNOLOGY, published 2014)

What was measured:
[1] = target: T1, MBP (control, expressed alone without a PDZ domain) (UniProt P0AEX9 27-392 = MBP); assay: affinity chromatography on … peptide resin, SDS-PAGE
[2] = target: T2, GST (control, expressed alone without a PDZ domain) (UniProt P08515 1-218 = GST); assay: as above
T2 construct: also called Glutathione S-Transferase

[3] = target: T3, HaloTag-PDZ1+PDZ2 fusion protein (residues 61 to 249 of Mus musculus PSD-95) (Mus musculus, UniProt Q62108 61-249); assay: affinity chromatography on HaloTag-PDZ1+PDZ2 resin, SIESDV peptide elution, SDS-PAGE
T3 construct: range 61-249; also called PSD-95 PDZ1-PDZ2; not shown: HaloTag

[4] = target: T1, MBP (control, expressed alone without a …); assay: affinity chromatography on 1× nNOS PDZ-β-hairpin resin, SDS-PAGE
[5] = target: T2, GST (control, expressed alone without a …); assay: as above
[6] = target: T2, GST (control, expressed alone without a …); assay: affinity pull-down from clarified E. coli lysate on PSD-95 PDZ2 resin, wash, elution with free SIESDV peptide (400 ug/ml), SDS-PAGE with GelCode Blue
[7] = target: T1, MBP (control, expressed alone without a …); assay: affinity chromatography on 2× nNOS PDZ-β-hairpin resin, SDS-PAGE

T2 sequence (P08515 whole entry, the tested form may be a part): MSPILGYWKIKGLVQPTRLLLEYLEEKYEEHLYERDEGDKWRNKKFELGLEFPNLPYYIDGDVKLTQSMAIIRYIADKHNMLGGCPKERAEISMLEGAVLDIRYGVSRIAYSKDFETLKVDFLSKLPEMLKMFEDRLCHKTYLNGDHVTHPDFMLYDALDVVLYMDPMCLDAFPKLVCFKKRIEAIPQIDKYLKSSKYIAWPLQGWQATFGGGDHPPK

**Q.** Does GAGSSIESDV (also called GluN2B ligand-NHS-Agarose) [NR2B (GluN2B) peptide ligand GAGSSIESDV] bind [1]?
**A.** Result: no binding

**Q.** Does GAGSSIESDV (also called GluN2B ligand-NHS-Agarose) [NR2B (GluN2B) peptide ligand GAGSSIESDV] bind [2]?
**A.** Result: no binding

B1: cypin (guanine deaminase, Homo sapiens: AA 1-454) (other, UniProt Q9Y2T3 1-454, looked up)
chain: MCAAQMPPLAHIFRGTFVHSTWTCPMEVLRDHLLGVSDSGKIVFLEEASQQEKLAKEWCFKPCEIRELSHHEFFMPGLVDTHIHASQYSFAGSSIDLPLLEWLTKYTFPAEHRFQNIDFAEEVYTRVVRRTLKNGTTTACYFATIHTDSSLLLADITDKFGQRAFVGKVCMDLNDTFPEYKETTEESIKETERFVSEMLQKNYSRVKPIVTPRFSLSCSETLMGELGNIAKTRDLHIQSHISENRDEVEAVKNLYPSYKNYTSVYDKNNLLTNKTVMAHGCYLSAEELNVFHERGASIAHCPNSNLSLSSGFLNVLEVLKHEVKIGLGTDVAGGYSYSMLDAIRRAVMVSNILLINKVNEKSLTLKEVFRLATLGGSQALGLDGEIGNFEVGKEFDAILINPKASDSPIDLFYGDFFGDISEAVIQKFLYLGDDRNIEEVYVGGKQVVPFSSSV
notes: range 1-454; also called untagged cypin
**Q.** Does B1 bind [3]?
**A.** Result: binds

B2: MBP-cypin (other, Homo sapiens, UniProt Q9Y2T3 1-454, looked up, not shown: large carriers)
chain: B1 chain
notes: range 1-454; also called cypin fused to an N-terminal MBP
**Q.** Does B2 bind [3]?
**A.** Result: binds

B3: nNOS PDZ domain (AA 11-129 of Mus musculus nNOS) (other, UniProt Q9Z0J4 11-129, looked up)
chain: IQPNVISVRLFKRKVGGLGFLVKERVSKPPVIISDLIRGGAAEQSGLIQAGDIILAVNDRPLVDLSYDSALEVLRGIASETHVVLILRGPEGFTTHLETTFTGDGTPKTIRVTQPLGTP
notes: range 11-129; also called 1× nNOS PDZ domain; 1× nNOS PDZ-β-hairpin domain
**Q.** Does B3 bind [4]?
**A.** Result: no binding

**Q.** Does B3 bind [5]?
**A.** Result: no binding

B4: PDZ2 domain of PSD-95 (other, UniProt Q62108 160-246, looked up)
chain: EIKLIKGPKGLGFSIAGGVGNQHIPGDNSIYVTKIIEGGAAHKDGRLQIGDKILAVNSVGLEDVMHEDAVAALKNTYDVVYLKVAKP
notes: domain: PDZ2; Species (Mus musculus) is stated only for the PDZ1+PDZ2 construct; also called PSD-95 PDZ2
**Q.** Does B4 bind [6]?
**A.** Result: no binding

B5: 2× nNOS PDZ domain fusion protein that contains a BH after each nNOS PDZ domain (other)
chain: QPNVISVRLFKRKVGGLGFLVKERVSKPPVIISDLIRGGAAEQSGLIQAGDIILAVNDRPLVDLSYDSALEVLRGIASETHVVLILRGPEGFTTHLETTFTGDGTPKTIRVTQPLGTPTQPNVISVRLFKRKVGGLGFLVKERVSKPPVIISDLIRGGAAEQSGLIQAGDIILAVNDRPLVDLSYDSALEVLRGIASETHVVLILRGPEGFTTHLETTFTGDGTPKTIRVTQPLGTPT
notes: domain: nNOS PDZ domain with β-Hairpin; also called nNOS-BH-nNOS-BH; 2× nNOS PDZ-β-hairpin domains
**Q.** Does B5 bind [7]?
**A.** Result: no binding
